Several values for one entry are separate records, joined by “and”; a condition that tells them apart may be missing. Equal values may be shown once.
B1: MBL-scOX40L (ligand)
chain: not shown
notes: extracellular TNF homology domain (THD) of mouse OX40L (Tnfsf4), 51Ser-198Leu; first of three copies; peptide linker; second of three copies; third of three copies; Order N to C: PA, MBL, OX40L, Linker, OX40L, Linker, OX40L, His6; Seen as dimer, trimer and multimers on non-reducing gels; also called OX40L-fusion protein (E); source: Anti PA tag Antibody Beads; not shown: His6, C-terminal, kept
B2: MBL-OX40L (ligand)
chain: not shown
notes: extracellular TNF homology domain (THD) of mouse OX40L (Tnfsf4), 51Ser-198Leu; Seen as dimer, trimer and hexamer on non-reducing gels; also called OX40L-fusion protein (A)
B3: Fc-MBL-OX40L (Fc fusion)
chain: not shown
notes: extracellular TNF homology domain (THD) of mouse OX40L (Tnfsf4), 51Ser-198Leu; Order N to C: Fc, PA, MBL, OX40L; Seen as dimer, hexamer and higher-order multimers on non-reducing gels; also called OX40L-fusion protein (B); not shown: Fc (human IgG1: hinge, CH2, CH3), N-terminal, kept

Target: the molecule itself
Assay: non-reducing SDS-PAGE and immunoblot; recombinant OX40L proteins in Laemmli sample buffer, non-heated/non-reducing, SDS-PAGE, immunoblot with anti-PA tag antibody; oligomers judged by molecular weight

Protein	stoichiometry N
B1	2 and 3
B2	2 and 3 and 6
B3	2 and 6
